Source: PMC7795613

Target: DDX3X 132-607 (human) (UniProt O00571)
Assay: MST
Settings: 20 nM labelled RNA, DDX3X 2-fold dilutions from 19 uM, 10 min at room temperature, measured at 25 C, assay buffer not stated (protein SEC buffer 50 mM …)

DDX3X 132-607 (human), sequence (O00571 132-607): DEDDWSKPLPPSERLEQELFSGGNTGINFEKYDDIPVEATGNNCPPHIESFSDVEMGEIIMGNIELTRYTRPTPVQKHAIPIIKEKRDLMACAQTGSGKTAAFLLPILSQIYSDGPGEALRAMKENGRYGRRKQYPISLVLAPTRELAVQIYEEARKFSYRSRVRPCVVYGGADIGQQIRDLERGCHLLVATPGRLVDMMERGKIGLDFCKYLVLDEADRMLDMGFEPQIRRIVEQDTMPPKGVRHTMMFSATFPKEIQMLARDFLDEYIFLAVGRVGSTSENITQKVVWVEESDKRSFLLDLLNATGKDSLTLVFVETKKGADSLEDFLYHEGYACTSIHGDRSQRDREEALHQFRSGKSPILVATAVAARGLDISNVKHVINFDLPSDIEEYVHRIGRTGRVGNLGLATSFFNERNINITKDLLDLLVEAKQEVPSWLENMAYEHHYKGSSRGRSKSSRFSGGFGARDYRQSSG

“AGUUGUUACUGUUGCUGACUCAGACUGCGACAGUUCGAGUUUGAAGCGAAAGCUAGCAACAGUAUCAACAGGUUUUAUUUGGAUUUGGAAACGAGAGUUUCUGGUCAUGAAAAACCCAAAAAAGAAAUCCGGAGGAUUCCGGAUUGUCAAUAUGCUAAAACG [ZIKV 5' TR 1-163]” gave a Kd of 7.05 µM.
Sequence “GGAGAAGUUUUAUCGUGUGAACUUCUUGGCUUAGUAUCGUUGAGAAGAAUCGAGAGAUUAGUGCAGUUUAAACAGUUUUUUAGAACGGAAGAACAACCAUGACUAAAAAACCAGGAGGGCCCGGAAAAAACCGGGCCAUCAAUAUGCUGAAACGCGGAU [JEV 5' TR]” has a Kd of 1.66 µM.
